Results taken from a protein production outcome set (Wang et al. 2014).

Assay: label from the status in PepcDB records

Sequence	protein production
MINPKVITRILANTDLKTKMRLAKVVPKLGKSDDVTKCMLCPNMCLHVCPVFDAERRLTVSPSVKSRLAYLGETEEAIYHCLPCDACKNACPMDISVNDNLRGYRGGERAMKAIERFEKSMRKVEVEPRDGKILYFPGCSTFESGLFDVTVEVLEKLGVDFAVKNLECCGMPYYELGLVDKFRGKISSLKDAAAKYEGVISNCPHCVHVMRENGIKAAHLLAVLKPVKIGGDVSYHDPCILARKLDIVEEPRRLLAEMGFVVHEPVFNGKDTHCCGYGGVYRFVVPEMAEKVAERRMEHFEHQIVTLCPSCRMALKAKDIVEIIAEGL	failed
MASYFDEHDCEPSDPEQETRTNMLLELARSLFNRMDFEDLGLVVDWDHHLPPPAAKTVVENLPRTVIRGSQAELKCPVCLLEFEEEETAIEMPCHHLFHSSCILPWLSKTNSCPLCRYELPTDDDTYEEHRRDKARKQQQQHRLENLHGAMYT	failed
MATIIFAGRSNVGKSTLIYRLTGKKVRRGKRPGVTRKIIEIEWKNHKIIDMPGFGFMMGLPKEVQERIKDEIVHFIEDNAKNIDVAVLVVDGKAAPEIIKRWEKRGEIPIDVEFYQFLRELDIPTIVAVNKLDKIKNVQEVINFLAEKFEVPLSEIDKVFIPISAKFGDNIERLKNRIFEVIRERQGRRV	not failed
MGHHHHHHSHSWDFGAFQSSSATDSSMEEIFQHLMAYHQEASKRISSHIPLIIQFFMLQTYGQQLQKAMLQLLQDKDTYSWLLKERSDTSDKRKFLKERLARLTQARRRLAQFPG	failed
MMRRVSLGSRLALLFAACTATVSLGAGLLFSRASEQHFVELDQQLLDSRLSLFRTQLAGVSTADELQARLPALRDELSHQADLALRISASNGATWFESRSGLPHAAQATGLATLHAPGIDYRSLSVPLTQGAMQSPRLTLYLDITHHQHFLQGMQRLIWLTVGLSALITALLGAWAARSGLRPLRQMGQVAASVSARSLTTRLPVAQMPEELAELASSMNAMLQRLDDAFQRLSAFSADIAHELRTPLSNLLTHTQVTLTRPRSLEEYREALHGNLEELQWMAQMINDMLFLAKADHGLLVPGDAPLALHDEVDALLEYYAPLAEDSDVQMLREGEAVLHGDQHMLRRALSNLLDNAMRFTPAGGQIKVTLGPGPTINVANTGLAIDPAALPRLFDRFYRVDPARREGSSEHAGLGLAITRSIVQAHGGCIRAECEGGWTRFVIEFTQDR	failed
MEKYPEIQQMRSKMREGDDTNEFKIRPLKGLSHPSGNLQMQRFQEDRRERIHSIRKRENQDGRLDLIGVVGEITVVIDDVVYEEEKLRKVVFTMKG	not failed
MAPTLQGQWIKVGQKGGTGPGPRSSHGIAAVGDKLYSFGGELTPNKHIDKDLYVFDFNTQTWSIAQPKGDAPTVSCLGVRMVAVGTKIYIFGGRDENRNFENFRSYDTVTSEWTFLTKLDEVGGPEARTFHSMASDENHVYVFGGVSKGGTMNTPTRFRTIEAYNIADGKWAQLPDPGDNFEKRGGAGFAVVQGKIWVVYGFATSIVPGGKDDYESNAVQFYDPASKKWTEVETTGAKPSARSVFAHAVVGKYIIIFAGEVWPDLNGHYGPGTLSNEGYALDTETLVWEKLGEEGAPAIPRGWTAYTAATVDGKNGLLMHGGKLPTNERTDDLYFYAVNSA	failed
MKVEFLMTNHNHQHHHSHAHGHVHTDNKKVLMFSFIIISLFMLVEIIGGFLANSLALLSDGFHMLSDAISLGVALIAFIYAEKHATKSKTYGYKRFEILAALFNGVTLFIISIIIIIEAIRRFLEPPEVQSKEMFIISVIGLMVNIIVAILMFKGGDTSHNLNMRGAFLHVLGDLFGSVGAIVASLLIWGFNFTIADPIASILVSLIILKSAYGISKSSLNILMEGTPNDIDLNAVIKAISKDERIQNVHDCHVWTISNDMNALSCHAVVPEYLSVQTCETMLKSIESDLLQLNIQHMTIQLETPEHKHDESTLCSGIHEHSH	failed
GHHHHHHAIAENLYFQSSRNPEVLWAQRSDKVYLTVALPDAKDISVKCEPQGLFSFSALGAQGERFEFSLELYGKIMTEYRKNVGLRNIIFSIQKEERSWWTRLLKSEEKPAPYIKVDWNKWCDEDEEVNSETASDDESAFVNQDSESSDDDGLLYLPDLEKARNK	failed
VTDILREIGMIARALDSISNIEFKELSLTRGQYLYLVRVCENPGIIQEKIAELIKVDRTTAARAIKRLEEQGFIYRQEDASNKKIKRIYATEKGKNVYPIIVRENQHSNQVALQGLSEVEISQLADYLVRMRKNVSEDWEFVKKGNTRNY	not failed
MNSPKNSLYEEKSGHYYNAVNPNLLKHIKKEWKEVLDIGCSSGALGAAIKENGTRVSGIEAFPEAAEQAKEKLDHVVLGDIETMDMPYEEEQFDCVIFGDVLEHLFDPWAVIEKVKPYIKQNGVILASIPNVSHISVLAPLLAGNWTYTEYGLLDKTHIRFFTFNEMLRMFLKAGYSISKVDRVYVDHKMYEPLIEELYGICKKYRLGSGFMAETVVFQYIIEAEKSQL	not failed
MVEVSQFKDAMAQLASAVHIVTTSGETGQHGFTASAVCSVTDSPPTLLVCINSNARAYEHFVKNRVLMVNTLTAEQSSLSNIFASPLSQEERFSNASWTTLTTGSPMLQDALINFDCEITEIKHVGTHDILICKIVDIHQSNAKNALVYRNRVYHSV	not failed
MLDRLLGRVHDTKHAAPILRGYLWWGLLLRAVLLLALGTLLVVEGNVLAEWLLTVRPPALPQEDVEELTAVSYTVIVVLLMVGTGARWQLLRRLEAAEAVPESAPSSAEEAPPLGR	failed
MLKIYVVDNGGQWTHREWRVLRELGVDTKIVPNDIDSSELDGLDGLVLSGGAPNIDEELDKLGSVGKYIDDHNYPILGICVGAQFIALHFGASVVKAKHPEFGKTKVSVMHSENIFGGLPSEITVWENHNDEIINLPDDFTLAASSATCQVQGFYHKTRPIYATQFHPEVEHTQYGRDIFRNFIGICASYREIQKENFQH	not failed
MSVTVFIPGDSAALAVGANRVAEAIAREAASRNLDVQIVRNGSRGMLWLEVLVEVRTEHGRIAYGPVKAADVTSLFDADFLDGGDHRLCLGPTKDIPFLKNQTRLTFARCGVTDPLSLEDYRNYQGMKGLEKAVTMEPLAIVAQVTESGLRGRGGAGFPTGIKWKTVADARADQKYIVCNADEGDSGTFADRMIMEGDPFVLIEGMAIAGLAVGATKGFIYTRSEYPYAIKVMEKAIEIARREGILGSSVLGSGRAFDMEVRMGAGAYVCGEETSLLNSLEGKRGTVRAKPPLPALQGLFGKPTVVNNVISLASIPVIMDRGAAFYRDFGVGRSHGTIPIQLAGNIRYGGLYETAFGLTLGQLVNDIGGGTITGRPVKAVQVGGPLGAYFPVSLFDTIFDYEAFTAAGGLIGHAGIVVFDDTADMLHQARFALEFCAVESCGKCTPCRIGSTRGVETVDKIALGIEREKNTALLEDLCETMKFGSLCALGGFTPYPVMSALRHFPQDFAPIPRVEAAELEHHHHHH	failed
MPSGQALRISRTCRLNAHPRFDRLWRSPTPIQVSAMIVAFRLFLACLGLFLCLSSPLAAQVSLYSGIAGTSDESAGGDLAEAIRAASEAGASVIVIDSAGRVAAAGTEAGAVETARVDPMGEASQLMKAQEKVSDFIGALRSRLEALPYSIFEVQYILRQTSPDGRIATYAEVLAINLVLLLIGRWMSIEIYGKRIARKHVVSRIREAPRGYREKMPFLVFRFVMGVGATLFAMVFAFIIGFLIFGPMQDLSIQFTVTAIFTAYFLARTASDLWRMVLSPYLSQYRLPPFSDRDAKRLYLWASLLATYDISSELFSTWVADFGLNYNVYAMVYGVLTGVGALGNVLMVLFNGRAISNAIRGGRTKDEVSWILRLVSVAWAPVVLFYMVFGWLQLAFDLVLERPVHIPLMAGTYGIFMSVVVAYGAMNYLLERYFDRTRQVKELNAALAEAEAAEDLSMTGVSAQRHHIATFEDLARRVAGILAFVVGTYALVLIWNPEMDWTGDLPIDRALDVMVIIFLGYIVFHFFRIWIDSKIAEETVDVPEGELGDEGGGTSASRLATLLPLFRGAILAVVVVSIVLIALMEVGINVSPLFAGAGVVGLAVGFGSQTLVRDIFSGAFFLVDDAFRKGEYIDIGDVKGTVEKISVRSFQLRHHLGALHTIPFGEIKVLTNFSRDWVIMKLPLRVTYDTDVEKVRKLIKNLGQELLSDPVIGDNFIQPLKSQGVIEMQDSAMIIRVKFMTKPGDQWLVRKRVYQDIRELFAREGIKFAHREVTVRLADGQEAAKMTPQQREAVTGAVQAAIDEDVLDDMMDDDR	failed
MQTNEHEHVIEVTDLRRVYGGGFEAVRGIDFSVRRGEVFALLGTNGAGKTSTVELLEGLAAPAGGRVRVLGHDPYTERAAVRPRTGVMLQEGGFPSELTVAETARMWAGCVSGARPPAEVLALVGLEAKSGTRVKQLSGGQRRRLDLALALLGDPEVLFLDEPSTGLDAEGRRDTWELVGALRDQGTTVLLTTHYLEEAEHLADRLAIMHDGRIAATGTPAEVTAAQPSHISFELPDGYFVGDLPPLAELGVSDHETDGRTVKLRTRELQRAATGLLVWAAQAAVELRRLDVRSASLEEAFLSIAKQVSARSDGTATDTTEKEYAA	failed
AASEAEYGKVSKAWTLHADGSQEYRSSMELTLFTHTAMNSTYGESFIVYNPDFQTLKIHSSYTRQKDGTIVKTPDNAFVEVLPRFAADAPAYNQLKEMVVVHTGLELGATIYLDYSIITKPGYYPALDINERLQETSPVKECKVSISVPEGTPLACGLYGSPVKAVEESHDGIKEVHWTLRNIPASSREAFQPKNREASPHLVASTYPSGKAALATLDKRLKESQGYESKTFAQFLTDKSGNEQEKVNIIRDHILNNLSTCPIPMAMTGYTVRDIDTVLRSAYGTPLEIAQLLNVMLNAAGIPSEVLAVYPGHLDTDACGLAAIQTLAVKATVDGKDQYLSASPLTNRGGLDKVVSLSGTSIEIETTPIQIKESRSVAISADQAKDGFAICVLPAISAGIDSWGMSALNSKRSNLFELPSLIREEVTYTVTPAEGMKLQTSTQEQVISKPFGKVTRTITPRGNTIEVVRTIELNKQQFTPAEYSDVRSLIHEWTNPDNRVLLFSL	not failed
MSSLQGGISLTHIAAGIAVVALIILGVGFYAIYQELASLRSQVEGLNTRYEEISESLEEVQGAFESSRGDIESIASSLESIQDRVSKIEERLGSAATQSDLDAVARELASLTQQLEDLQARIQALEESGAEAGERLDQLAMALQDLQARLASLEERVDEVYASLYFPVTVVDGTGTPVVILERPERIVSMAPSATETLYYVGALDRVVGVDQYSDFPPELNEAKEAGEVEVIGGYWNPSIEAILSLEPDLVVGVASVPNHIQVKKVLSAYGIPVILLPDSSLEDVRESMMIVGKATGEVVGAYEAVLKFDMAVAAAGLLLEGVEPVETAVVVWPNPLFVVGGGTWEHEVIELAGGVNVYGDTQGWPQVSYESLLEADPDVIILMGGHGNSGVTVEGFIEALESQLGEAAWEIDAVASGRIYVLLDEYNDSFARPSPRTVLSIYVLAVLIQPSAFDIQPGDLPSEVSPETLDVLGLLEGRVPEEVLEFLGEALG	failed
MKLVFKWHDAPLSFMEGVFARGDRRLGAALRRAWELGCRFDGWGDRFDEAAWRTAFEETGIDPAFYHRRREPDEVLPWGHLDFGVTREFLLRELELSRQGAATEDLEHHHHHH	failed
MEFKDYYKIMGVPRDASQDDIKRAYRKLARKYHPDVSKDPQAEARFKELGEAYEVLKDPEKRVAYDRLGTNWKADQEFRPPPDWNAGFEFSQQGFTGADAAQFSEFFESLFGRSFRAEQARRGGETHGGPGGAFFHAPGEDRYAKIMIDLEDSYHGATRTISLQVPEVDAEGHVSTREHKLNVVIPRGIRPRQYIRLAGKGAPGHGQGKAGDLYLEIEFRSHPIYRVDEHDVYLDLPVAPWEAALGATITVPTPEGMVDLKIPADSTTGRKLRLKGRGIPGKIPGDFYVVLRIVPPPATDESDKAFYRSMAEQFKSFNPRAKLGVQA	failed
